Test results published in publication PMC10873206.

Target: UBE2R1 E108A (human) (UniProt P49427)
Sequence (P49427 whole entry E108A): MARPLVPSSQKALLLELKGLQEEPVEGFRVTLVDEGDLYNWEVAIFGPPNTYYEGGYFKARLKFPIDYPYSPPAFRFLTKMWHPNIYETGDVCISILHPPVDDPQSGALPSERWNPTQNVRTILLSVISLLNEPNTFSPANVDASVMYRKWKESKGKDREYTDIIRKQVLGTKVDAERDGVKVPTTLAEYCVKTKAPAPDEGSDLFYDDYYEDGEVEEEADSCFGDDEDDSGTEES

For “D77 acceptor ubiquitin R54D (from UniProt P0CG48 1-76) (natural protein)”, the Km of unanchored D77 acceptor ubiquitin for UBE2R1 in di-ubiquitin synthesis (K48R donor ubiquitin, neddylated CUL2–RBX1 WT); saturation not reached, top concentration given was greater than 800 µM.
